Assay results as given in a protein production outcome set (Wang et al. 2014).

Assay: label from the status in PepcDB records

Sequence | protein production
MTLAPPLPHSNSPCSPCCMDPLLRHGFCLDMSGEIYPVIRLPCSGAAKGVHVMIRFIVKLLLCALVLLPLPAFATSGADTGPDNRLLRMGVRAHGGFTRLSMAFERDIAPVLHQLSGNRVRLVFSNTVGGRWKKLRSYRDAHVEGVVVAPRGNDLMVTVTIKGDPRGVRVSTSPGAGVVSLDVGASLAPRRSPPLAQGREGIKVGVEQLITTFDPPFKSEIPFTPTDRRVLEAMVPPAEAALIMDGEAALYEGNGSEAAEIFAGIGTNSPGRPLALYRLGEANYLLQKYGDALRFFREAERQWPVFLTRSPSTAFCYADSVARSGDLAGGRRLLGSLIAGLADKKYAPALLVRMADILARQGKDQEALAIYRNVADNFTGSKGSWQARMKLADRRLLALEPAAYSSLVKDYLEIYERGTDFGLREQGLFKAALLLSLYGDADQAFARVAEYEKKFPRGMYVSIAKGMREELLVPVYRRITRAGDNEALVKLALENRDYLGRVLAEDDFIKNLSAAFADLGRIKEEVGLYANLAIREQNRVYAPELYRRILHDAEQLGDPTLMEKAAGEFVERFPAHPWVQRFREELAAVEYNRGDFQRVVGRLSGMLASGTRPEYAESLYYLGKSLDASGNRRDAERAMLLFLAELRRREMSSPLAADASYVAATARLSRGDRKGAKEILRAAGEASPEERDPFLYKLGEIARSEGRYEEAAHYLRTVVKEGKDPDWRDMASRLLADMELTGMVRKSK | failed
AIANSSVSTHGTGDCPVNCTKSEDFAPSKLGTKEYWDGAYKRELQTYKDIGDVGEIWFGEESMHRVIRWMEAQNISENAAILDIGTGNGMFLVELARHGFSNLTGIDYSKAALELTTNILVEEGLKNINIQVEDFLNPSTELKGFDVCIDKGTFDAISLNPEDREEAKKHYVTSLRAVMRPNGFFIITSCNWTKEQLLEIFKPGFELVRELPTPNFQFGGVTGNSVTALVFKQTD | failed
MLHYQIEFDDYRQHLVHVTLRFLADPNQELWLPTWIPGSYLIREFSKHIESVQAYDEAGRILEIKKQQKNRWRLFNTDHELITVEYDAYAYDLSVRGAYVDQTRLYINPACVCLALGGQEEKACEVELFLPQELKHFQLATGLPSKSLVKGRFTLKAENYDQLIDSPFELAEQTRFSFEAGNIAHEMVISGIHATNTERLKNDLEKICATEVALFGSAPFQNYTFMTMATGNSYGGLEHCNSTSLIIPRTDLPKLNEPEEPSEDYQRFLGLCSHEYFHSWLVKFIRPENFARYNLNQESYTSLLWIFEGFTSYYDDLILLRSGVISQESYLKLLKAQIDRYLQNPGRQIQSVAESSFDAWIKFYRQDENSNNAGTSYYNKGCLVALCLDLGLRLRGSSLDALLRLLYQNTEKGVQVNERTIFELCQQLTGDSWIEQINHLINTTDELPLDQLFPEFGLSYALKHDKKMPFGMKLQDKPEGVMVQQVNRYGAAATAGLSAQDVIIAIDGLKASEKLLATYAKQQGIITILAFRRDELMSFEVERSTIDLAEVELVVQDQSKADHWLKV | failed
MNKKRMIAMVSTALLVTGCAEVGNAQTVAVENSGQSVQKNIVKSIQSQANPLKTIEPSKPFEDLKPLKKMIGNAQYVGLGENTHGSSEIFTMKFRLVKYLVTEMGFTNFAMEEDWGNGLKLNEYIQTGKGNPREFLKLLYPTDEIIAMIEWMKDYNADPSNKKKIQFIGLDLKALDQGSFNKVIDYVRLHRPDLLAEVEENYKELSSFTGSIQEYMKLTPKLKEKFKANAERVARLLKDENEQANTEIIPSEYIWAKATASAIEKFTTMLLPNDYPSIIKLHEQYLADHAMWAQETFGGKTMVWAHNIHIAKGIIDEKLYPYVAGQFLKERLDNNYVTIGSTTTEGNFTLYSEYNPSTGGKITTDTIPQDVKSFNYTLGKVPYKMFLLDNRHLKGQAEKWVKAKRPLLSIGGQILPNSSVYFDTSLLEQFDIIFHIRKTSPSHIKLEHHHHHH | not failed
RNGLDLTTYEGQVEGVEIASDPNLKIVGMMTHFPNEGLDEIRRKVDRFKVETKWLMDSAGLKRKDITLHVANSYITLNLPEAHLDMVRPGGMLYGDYPATLPYERIVSFKTRIASLHFFPAGSTIGYGSTKVLERDSILANLPIGYSDGFARSLSNKADVLINGQRARVMGKASMNTTMVDVTDIIGVQANDEVVVFGRQGFEEITAEETEEKSGRILPEHYTIWGATNPRVYR | failed
MPQPKKDKPDTPLRSDAQRNRERILAVATEELTHCANAPLSAIAKKAGVGQGTFYRNFPNREALVLEIYRYGMQQVAEAAPEMLATGEPDLALRQWMDRLAEFAMTKAGLADAIRLVTSAPGAPEKPRPTPLEDAAELLLRANHEAGTIRPGVTGDDFFLVLGGLWLIDPGENWQPRVTRFLDLVMDGLRAGAPGR | not failed
QRSTFGTKHMVFRTDQLIDGIERNVRITSEEVNAALPVPLLDRQDPGAILISGSSYTEPSEALQTMREAMTQEKFSGSVEIPLGIVRALLDLGFTDEAASWLEDLVPRLGNEWRHQWYSGVTSLLLDDYLTAQQHFNEVYNILPGESAPKLARAAVCEMLLQEKGLESTALLDPAVTVAAADIKGEGMSNIWRELTSDPATLRFKAIYLYALVWRTNPTTVSSAFGLARQLAAENQIDLAVSTLDRVPQNSTHRRMAELTAILHLLGDLSEARLRRAARRLEAIPTNEPRFLQIQIAIMNAALQWLRTGGEAANDPIFEYPFTQRGLRNGLSATLRQLARSAPSSHRYALVDVANQVRPMTWF | not failed
MARVQIDLPDKFIYSTKLQVRIGDVAAGFHMGNHMLISYLNEALLLFFREAGVIGMFGTKMNLIDADLAVIYKTEAAHGDMLRVDLGIIPSGIYGFDAFYRVTNERTGEEIAIAKMAMLFFDYEQRQISPVPEAFTVALPKIYNRAIPSTE | failed
MRRHRLSGQITLSMSVVVAIAVLMVFVGTFIFYSIYMTWFPPPPGPPPLLPEAPDFILIAIFLLLGLAIAIHAALRLTRRILAPLNSLAEGARKIAAGDLTARAVAGDRSLGETAQLVDDFNAMARRLEDAAESMTSWNAAIAHELRTPLTILRGRLQGLTDGVFEPSDELFRSLLVQVENLSRLVDDLRVVTLSDSQRLDMRVEPTDLANEVAQAVDAMRPALEGAGFSIRMTTEPVTLPCDGPRIRQALLALLENARRYATPGMIVIRMTLETFEVAIAVEDEGPGLSAEFAARAFDAFVRAEPSRSRQFGGSGLGLSVVRAIAEAHGGHARYSTSEKGGSVFEIVFPIDGASADSNAASCAPKV | failed
KLIGITGMPGSGKSAITKLAEKYKIVVVSMGDVVRYETLKQGMPLNPENVGNTAVKLREIYGKEAIAVPCLNYVNEKYNNEDFVIIEGIRSIYEVNYIKKHAELDIIAIHSSPKTRFERLSGRNREDDSNDWNTFVERDERELNFSIGRVISLADYMVVNEGNYMDFVNDLENTFKKIINV | failed
MRTSAFVPVLLFALLGALVGCSGGTELTYSGPEEAYKKGVAEMEEGDHQQAIRFFRAVFEYGRGNEWAPDARFKLAMAQRGLNKHLVAANEFQRFTQLYRNDELLPRAEFERANSYYLRSPSYRLDQSDSEQAISLFRLFIDRHPNHELVPEAEEKINELRAKLARKKYEAGRLYEQRDMWQAATTVYERAFDQYPDTPWADDALLGAVRTYIRYADRSVESKQAERYQKAIENYNRLTQLFPESTLLGRAEDLYSEAREKLDRAQAQQGEQSLAQEDASSGSN | failed
RVGINQLVQHPALDAATTGFKEAFEEAGVDVTFDEQNANGEQGTALTISQQFASDNLDLVLAVATPAAQATAQNITDIPVLFTAVTDAVSAELVDSNEAPGGNVTGTSDIAPIEQQLELLQQLVPDAKSIGIVYASGEVNSQVQVDEVTKAAEPLGLSVNTQTVTTVNEIQQAVEALGDVDVIYVPTDNMVVSGISSLVQVAEQKQIPVIGAESGTVEGGALATLGIDYTELGRQTGEMALRILQDGEDPATMPVETATEFTYVINEDAAERQGVEIPQEILDKAERV | not failed
MCSKQSANQQISYRQTAEATLDKGMDNQPEAPYWFPKQLLKWQLSKDKAAKYNTASVPLAKRIDKWQLPTVNKTQDPKMKVVALSIMNSSTSGNAPRGINTFDANVFSNWQYIDQLVYWGGSAGEGLIVPPTADVIDSAHKNGVPVLGTVFFPQVVSGGKLKWLNDFLKQDADGHFPMADKLVAVAKAYGFDGWFINQETDPEVKSFDSASTGKTATSSTSNGLSKKHAQLMQQLIKEYKQKAGSKLDLMWYDSMTKDGKMDWQNALTKENQSYLVDANMKPVADSMFLNFWWTKKRLASQELLKKSHERAEKLGISPYNLFAGIDVQADGTATPVRWNLFANKQHVPYTSLGLYAPDWTHASSDTVDEFQAKEGALWVNDQNDPSRSIPSTTSTHWPGVSTYAVEQSAITKQPFVTNFSLGNGYNYFIKLEHHHHHH | failed
PSYTVTVATGSQWFAGTDDYIYLSLVGSAGCSEKHLLDKPFYNDFERGAVDSYDVTVDEELGEIQLVRIEKRKYWLNDDWYLKYITLKTPHGDYIEFPCYRWITGDVEVVLRDGRAKLARDDQIHILKQHRRKELETRQKQYRWMEWNPGFPLSIDAKCHKDLPRDIQFDSEKGVDFVLNYSKAMENLFINRFMHMFQSSWNDFADFEKIFVKISNTISERVMNHWQEDLMFGYQFLNGCNPVLIRRCTELPEKLPVTTEMVECSLERQLSLEQEVQQGNIFIVDFELLDGIDANKTDPCTLQFLAAPICLLYKNLANKIVPIAIQLNQIPGDENPIFLPSDAKYDWLLAKIWVRSSDFHVHQTITHLLRTHLVSEVFGIAMYRQLPAVHPIFKLLVAHVRFTIAINTKAREQLICECGLFDKANATGGGGHVQMVQRAMKDLTYASLCFPEAIKARGMESKEDIPYYFYRDDGLLVWEAIRTFTAEVVDIYYEGDQVVEEDPELQDFVNDVYVYGMRGRKSSGFPKSVKSREQLSEYLTVVIFTASAQHAAVNFGQYDWCSWI | failed
PSGFPQNLHVTGLTTSTTELAWDPPVLAERNGRIISYTVVFRDINSQQELQNITTDTRFTLTGLKPDTTYDIKVRAWTSKGSGPLSPSIQSRTMPV | not failed
MALGFGMKMELQQFLDALASSPEKIEFETTMAVIEDNYDFTPAAFTNGNTQNDANENNGSCKIFAFGLLNALDKEATLACFGRFYREDVLLHPENNDHQNIRNFMVTGWEGIQFETSALTAK | not failed
MEEMNVFLTMIYRELKRFIRSPSRIIGSILNPLLWLIFFGKGWSGVFNFPMATRIFGGVDYMTYLVPGVVVMTVFDMSFLQGLTIIWDKQFGFMKEILVAPASRVESILGRITGGAIVAMIQGFIMVALSFIVANLKVSGVIPTLILAFFVGVAIAGLGVAVALKMSSMEGFQIIVMMLMLPMMFLSGAFYPVRTMPNWMQWLAKINPLTYAVDGARYYLAGVTPTFGIMQDWIVLILLALVFAGFAGLEFRKAYLS | failed
MAAEPLTELEESIETVVTTFFTFARQEGRKDSLSVNEFKELVTQQLPHLLKDVGSLDEKMKSLDVNQDSELKFNEYWRLIGELAKEIRKKKDLKIRKK | not failed
MLSFVVMSFLIFVIVMVNEHKAHLSVIQKMILAVVNGSITIILSIIVFYIFYPQNISLFLITAGILTVFVFLYGLLLFLFGFTHRELSYLSKYDKYKFLCKFTIEMFSSLTNHAFLTISAIVLYQIQHPKPTIDFIVMIGMITISVIVVMLLFLKTYSIIIKQLKKLENN | failed
MSRADDVANLFQRFGASSDGYLETDNSLDYQESSVSSTPSVALQRATSQPSIEQPCAEQSAQNNAPAPDSITPDKTRRIAADTLAKLLAEAVQAREAEAQARNNEALAQSMGKEQLSRTPAHVIAVVSAKGGVGKSTLSAALTSLVKVPGGQTLAIDLDPQDALQHHLNASPDVAGLGGASLSGENWRALLLNGSADADTQLLAYGSLQLDERRSLERFQESDAHWLVRQIARMQLSARDVVILDVPCGDLLMLEQALNAASQVLVVLTADAACYLTLDQMQGWLEPVLAGPQPPVCHYVINQFDASRTFSRDMRDVMAKRLGGRLLGIVHKDNALAEALAYGHNAVQVPSASPGTQDLRVLSHLLITKLLTQDVEETRLS | failed
